According to the supplement of paper PMC7877785:
± gives the uncertainty stated by the source.

Assay: self-splicing fitness, log relative to wild type (ln ratio); higher = more splicing; Tetrahymena group I intron in knt gene, E. coli kanamycin selection, DiMSum; sequences stand for … in CUCUCU…GGAGGGAAAAGUUAUCAGGCAUGCACCUGGUAGCUAGUCUUUAAACCAAUAGAUUGCAUCGGUUUAAAAGGCAAGACCGUCAAAUUGCGGGAAAGGGGUCAACAGCCGUUCAGUACCAAGUCUCAGGGGAAACUUUGAGAUGGCCUUGCAAAGGGUAUGGUAAUAAGCUGACGGACAUGGUCCUAACCACGCAGCCAAGUCCUAAGUCAACAGAUCUUCUGUUGAUAUGGAUGCAGUUCACAGACUAAAUGUCGGUCGGGGAAGAUGUAUUCUUCUCAUAAGAUAUAGUCGGACCUCUCCUUAAUGGGAGCUAGCGGAUGAAGUGAUGCAACACUGGAGCCGCUGGGAACUAAUUUGUAUGCGAAAGUAUAUUGAUUAGUUUUGGAGUACUCGUGGUCG
How it was run: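 The eight P1ex-region nucleotides of an intron in the knt kanamycin-resistance gene on pET-22b(+) were all randomised and the library put into E. coli BL21(DE3). Six replicate transformations were grown overnight at 37°C or 30°C on LB agar with or without 25 μg/mL kanamycin, together with 100 μg/mL carbenicillin, 50 μM IPTG and 0.2% rhamnose. Colonies were pooled and amplicon-sequenced on an Illumina HiSeq 2500. Fitness from DiMSum is the error-weighted combination of wild-type-normalised replicate fold changes, kanamycin over none.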

Sequence	self-splicing fitness (ln) (30 °C)	self-splicing fitness (ln) (37 °C)
AGUAAGCAAUAUUACGUUGU	-3 ± 0.099	-1.97 ± 0.12
AGUCAGCAAUAUUACGAACA	-0.843 ± 0.076	-0.406 ± 0.11
AGUCAGCAAUAUUACGAAUU	-0.652 ± 0.064	-0.509 ± 0.076
AGUCAGCAAUAUUACGACGC	0.144 ± 0.1	0.499 ± 0.13
AGUCAGCAAUAUUACGAGAG	-2.88 ± 0.2	-1.67 ± 0.18
AGUCAGCAAUAUUACGAGCG	-0.195 ± 0.09	-0.556 ± 0.1
AGUCAGCAAUAUUACGAGGA	-2.97 ± 0.2	-1.73 ± 0.16
AGUCAGCAAUAUUACGAGUA	-2.3 ± 0.13	-1.31 ± 0.1
AGUCAGCAAUAUUACGAGUU	-1.9 ± 0.092	-0.799 ± 0.077
AGUCAGCAAUAUUACGAUCU	-0.19 ± 0.07	0.36 ± 0.09
AGUCAGCAAUAUUACGCACG	-1.02 ± 0.12	-0.646 ± 0.15
AGUCAGCAAUAUUACGCCAC	-3.68 ± 0.18	-3.11 ± 0.19
AGUCAGCAAUAUUACGCCUG	-2.49 ± 0.16	-0.867 ± 0.11
AGUCAGCAAUAUUACGCGAA	-1.21 ± 0.17	-0.704 ± 0.15
AGUCAGCAAUAUUACGCGCC	-0.491 ± 0.1	-0.228 ± 0.11
AGUCAGCAAUAUUACGCUAA	-0.794 ± 0.083	-0.99 ± 0.083
AGUCAGCAAUAUUACGCUAC	-3.7 ± 0.24	-4.03 ± 0.46
AGUCAGCAAUAUUACGGAAU	-1.84 ± 0.084	-0.425 ± 0.077
AGUCAGCAAUAUUACGGACG	-0.173 ± 0.07	0.0506 ± 0.1
AGUCAGCAAUAUUACGGCCG	-1.28 ± 0.11	-0.527 ± 0.085
AGUCAGCAAUAUUACGGCUU	–	-1.91 ± 0.29
AGUCAGCAAUAUUACGGGGU	-4.54 ± 0.31	-1.5 ± 0.15
AGUCAGCAAUAUUACGGUAC	-3 ± 0.16	-1.88 ± 0.21
AGUCAGCAAUAUUACGGUGC	-1.68 ± 0.14	-1.07 ± 0.19

Sequence	self-splicing fitness (ln) (30 °C)	self-splicing fitness (ln) (37 °C)
AGUCAGCAAUAUUACGGUUC	-2.98 ± 0.11	-1.51 ± 0.11
AGUCAGCAAUAUUACGUCCC	-1.52 ± 0.22	0.485 ± 0.27
AGUCAGCAAUAUUACGUCUA	-0.83 ± 0.072	-0.792 ± 0.071
AGUCAGCAAUAUUACGUCUU	-0.994 ± 0.095	-0.306 ± 0.11
AGUCAGCAAUAUUACGUGCG	-0.277 ± 0.078	-0.317 ± 0.088
AGUCAGCAAUAUUACGUGGC	-2.31 ± 0.16	-2.21 ± 0.15
AGUCAGCAAUAUUACGUGUC	-2.18 ± 0.13	-2.11 ± 0.19
AGUCAGCAAUAUUACGUUAG	-3.63 ± 0.17	-1.43 ± 0.12
AGUCAGCAAUAUUACGUUCG	-1.9 ± 0.13	-1.46 ± 0.15
AGUCAGCAAUAUUACGUUUA	-2.23 ± 0.11	-1.36 ± 0.099
AGUGAGCAAUAUUACGAAAA	-3.16 ± 0.16	-2.23 ± 0.23
AGUGAGCAAUAUUACGAGUG	-3.75 ± 0.47	-1.02 ± 0.24
AGUGAGCAAUAUUACGAUAU	-3.14 ± 0.25	-2.22 ± 0.28
AGUGAGCAAUAUUACGAUGU	-3.64 ± 0.3	-2.51 ± 0.25
AGUGAGCAAUAUUACGCACA	-1.35 ± 0.1	-0.91 ± 0.13
AGUGAGCAAUAUUACGCCUG	-3.85 ± 0.29	-2.38 ± 0.29
AGUGAGCAAUAUUACGCUUU	-4.07 ± 0.32	-3.04 ± 0.4
AGUGAGCAAUAUUACGGCGG	-1.83 ± 0.31	-2.29 ± 0.26
AGUGAGCAAUAUUACGGCUU	-2.43 ± 0.17	-1.72 ± 0.25
AGUGAGCAAUAUUACGGGAG	-5.04 ± 0.41	-2.38 ± 0.14
AGUGAGCAAUAUUACGGGCA	-1.22 ± 0.3	-1.73 ± 0.15
AGUGAGCAAUAUUACGUACC	-0.317 ± 0.2	-0.261 ± 0.28
AGUGAGCAAUAUUACGUACG	-2.22 ± 0.16	-1.3 ± 0.13
AGUGAGCAAUAUUACGUGAU	-2.87 ± 0.26	-2.74 ± 0.34

Sequence	self-splicing fitness (ln) (30 °C)	self-splicing fitness (ln) (37 °C)
AGUGAGCAAUAUUACGUGCG	-3.31 ± 0.33	-2.08 ± 0.37
AGUGAGCAAUAUUACGUGUG	-2.69 ± 0.21	–
AGUGAGCAAUAUUACGUUGA	-2.51 ± 0.13	-2.75 ± 0.2
AGUGAGCAAUAUUACGUUUA	-3.37 ± 0.45	-2.04 ± 0.22
AGUUAGCAAUAUUACGAAAU	-2.58 ± 0.13	-1.62 ± 0.13
AGUUAGCAAUAUUACGACAU	0.112 ± 0.013	0.071 ± 0.033
AGUUAGCAAUAUUACGACCC	-0.338 ± 0.19	-0.0159 ± 0.49
AGUUAGCAAUAUUACGAGAC	-3.11 ± 0.26	-2.02 ± 0.27
AGUUAGCAAUAUUACGAUGC	-1.75 ± 0.2	-0.0326 ± 0.17
AGUUAGCAAUAUUACGCAAU	-1.6 ± 0.18	-2.52 ± 0.29
AGUUAGCAAUAUUACGCACC	-1.35 ± 0.15	-0.000166 ± 0.19
AGUUAGCAAUAUUACGCCGA	-2.78 ± 0.46	-1.71 ± 0.39
AGUUAGCAAUAUUACGCCGC	-2.09 ± 0.38	–
AGUUAGCAAUAUUACGCCGU	-1.15 ± 0.099	-0.939 ± 0.14
AGUUAGCAAUAUUACGCUGU	-2.3 ± 0.14	-2.01 ± 0.21
AGUUAGCAAUAUUACGCUUU	-2.56 ± 0.13	-1.09 ± 0.13
AGUUAGCAAUAUUACGGAUU	-1.32 ± 0.14	-0.035 ± 0.16
AGUUAGCAAUAUUACGGCAG	-0.102 ± 0.13	-1.48 ± 0.21
AGUUAGCAAUAUUACGGGAG	-4.34 ± 0.39	-1.65 ± 0.22
AGUUAGCAAUAUUACGGGCC	-2.24 ± 0.21	-1.61 ± 0.18
AGUUAGCAAUAUUACGGGGG	-2.04 ± 0.27	-1.38 ± 0.31
AGUUAGCAAUAUUACGGGUA	-2.61 ± 0.39	-0.0817 ± 0.2
AGUUAGCAAUAUUACGGGUG	-3.86 ± 0.25	-1.64 ± 0.21
AGUUAGCAAUAUUACGUAAA	-2.85 ± 0.28	-1.4 ± 0.26

Sequence	self-splicing fitness (ln) (30 °C)	self-splicing fitness (ln) (37 °C)
AUAAAGCAAUAUUACGAAGC	-4.43 ± 0.46	-0.791 ± 0.29
AUAAAGCAAUAUUACGACGA	-0.00868 ± 0.096	0.701 ± 0.12
AUAAAGCAAUAUUACGAGGU	-3.99 ± 0.16	-1.9 ± 0.21
AUAAAGCAAUAUUACGAUAA	-0.405 ± 0.079	-0.094 ± 0.094
AUAAAGCAAUAUUACGAUAG	-2.82 ± 0.15	-0.468 ± 0.14
AUAAAGCAAUAUUACGAUGC	-1.39 ± 0.08	-0.56 ± 0.12
AUAAAGCAAUAUUACGCACG	-0.375 ± 0.083	-0.0827 ± 0.11
AUAAAGCAAUAUUACGCGUA	-0.873 ± 0.079	-0.0465 ± 0.091
AUAAAGCAAUAUUACGCGUU	-1.56 ± 0.084	0.0344 ± 0.1
AUAAAGCAAUAUUACGCUGC	-3.15 ± 0.23	-2.59 ± 0.33
AUAAAGCAAUAUUACGCUGG	-1.43 ± 0.088	-0.293 ± 0.13
AUAAAGCAAUAUUACGGAAU	-1.16 ± 0.077	-0.475 ± 0.1
AUAAAGCAAUAUUACGGCAA	0.284 ± 0.085	-0.0372 ± 0.11
AUAAAGCAAUAUUACGGCUG	0.334 ± 0.069	0.483 ± 0.1
AUAAAGCAAUAUUACGGGGC	-3.6 ± 0.26	-1.97 ± 0.22
AUAAAGCAAUAUUACGGUCC	-0.883 ± 0.14	-0.458 ± 0.17
AUAAAGCAAUAUUACGGUUA	0.442 ± 0.078	0.534 ± 0.09
AUAAAGCAAUAUUACGUACU	0.123 ± 0.081	0.445 ± 0.095
AUAAAGCAAUAUUACGUAGG	-2.93 ± 0.12	-1.51 ± 0.15
AUAAAGCAAUAUUACGUCCC	-0.201 ± 0.097	-0.0866 ± 0.13
AUAAAGCAAUAUUACGUUCA	0.0367 ± 0.069	0.0639 ± 0.1
AUACAGCAAUAUUACGAAAU	-1.44 ± 0.087	-0.906 ± 0.11
AUACAGCAAUAUUACGAGAA	-2.21 ± 0.25	-1.79 ± 0.16
AUACAGCAAUAUUACGAUUA	-1.18 ± 0.11	-0.625 ± 0.11
